B1: Prelamin-A/C (Homo sapiens), P02545-1 (parent)
chain: METPSQRRATRSGAQASSTPLSPTRITRLQEKEDLQELNDRLAVYIDRVRSLETENAGLRLRITESEEVVSREVSGIKAAYEAELGDARKTLDSVAKERARLQLELSKVREEFKELKARNTKKEGDLIAAQARLKDLEALLNSKEAALSTALSEKRTLEGELHDLRGQVAKLEAALGEAKKQLQDEMLRRVDAENRLQTMKEELDFQKNIYSEELRETKRRHETRLVEIDNGKQREFESRLADALQELRAQHEDQVEQYKKELEKTYSAKLDNARQSAERNSNLVGAAHEELQQSRIRIDSLSAQLSQLQKQLAAKEAKLRDLEDSLARERDTSRRLLAEKEREMAEMRARMQQQLDEYQELLDIKLALDMEIHAYRKLLEGEEERLRLSPSPTSQRSRGRASSHSSQTQGGGSVTKKRKLESTESRSSFSQHARTSGRVAVEEVDEEGKFVRLRNKSNEDQSMGNWQIKRQNGDDPLLTYRFPPKFTLKAGQVVTIWAAGAGATHSPPTDLVWKAQNTWGCGNSLRTALINSTGEEVAMRKLVRSVTVVEDDEDEDGDDLLHHHHGSHCSSSGDPAEYNLRSRTVLCGTCGQPADKASASGSGAQVGGPISSGSSASSVTVTRSYRSVGGSGGGSFGDNLVTRSYLLGNSSPRTQSPQNCSIM
B2: Isoform 5 of Intermediate filament family orphan 1 (Homo sapiens), Q0D2I5-5 (parent)
chain: MNPLFGPNLFLLQQEQQGLAGPLGDSLGGDHFAGGGDLPPAPLSPAGPAAYSPPGPGPAPPAAMALRNDLGSNINVLKTLNLRFRCFLAKVHELERRNRLLEKQLQQALEEGKQGRRGLGRRDQAVQTGFVSPIRPLGLQLGARPAAVCSPSARVLGSPARSPAGPLAPSAASLSSSSTSTSTTYSSSARFMPGTIWSFSHARRLGPGLEPTLVQGPGLSWVHPDGVGVQIDTITPEIRALYNVLAKVKRERDEYKRRWEEEYTVRIQLQDRVNELQEEAQEADACQEELALKVEQLKAELVVFKGLMSNNLSELDTKIQEKAMKVDMDICRRIDITAKLCDVAQQRNCEDMIQMFQKKLVPSMGGRKRERKAAVEEDTSLSESEGPRQPDGDEEESTALSINEEMQRMLNQLREYDFEDDCDSLTWEETEETLLLWEDFSGYAMAAAEAQGEQQEDSLEKVIKDTESLFKTREKEYQETIDQIELELATAKNDMNRHLHEYMEMCSMKRGLDVQMETCRRLITQSGDRKSPAFTAVPLSDPPPPPSEAEDSDRDVSSDSSMR

Variants of: B1
Details: with iffo1_human IFFO1, Q0D2I5

Row | effect of a mutation on the interaction | Variant
1 | disrupting interaction strength | E358K
2 | disrupting interaction strength | R386M

Variants of: B2
Details: with lmna_human LMNA

Row | effect of a mutation on the interaction | Variant
3 | decreasing interaction strength | N73K
4 | disrupting interaction strength | N73D
5 | with no effect | A65P
6 | with no effect | A65V
7 | disrupting interaction strength | R85H
8 | with no effect | A89V
9 | with no effect | A89T

Variants of: B2
Details: with xrcc4_human XRCC4, Q13426
xrcc4_human XRCC4, Q13426, sequence (Q13426 whole entry): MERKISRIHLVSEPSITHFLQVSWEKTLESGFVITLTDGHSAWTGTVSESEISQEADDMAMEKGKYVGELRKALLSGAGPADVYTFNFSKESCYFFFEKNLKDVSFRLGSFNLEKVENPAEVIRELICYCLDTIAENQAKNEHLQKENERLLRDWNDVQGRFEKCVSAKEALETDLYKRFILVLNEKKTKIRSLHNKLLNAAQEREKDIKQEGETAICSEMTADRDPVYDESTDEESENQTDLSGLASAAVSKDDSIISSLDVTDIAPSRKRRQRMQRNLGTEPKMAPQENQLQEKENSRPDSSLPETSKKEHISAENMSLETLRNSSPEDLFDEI

Row | effect of a mutation on the interaction | Variant
10 | disrupting interaction strength | I484R;A491R
11 | disrupting interaction strength | D494A;R520A
12 | disrupting interaction strength | M516R;C519R
13 | disrupting interaction strength | C519R
14 | disrupting interaction strength | D494A;D513A;R520A

Variants of: B2
Details: with lmna_human LMNA
Remark: another data set of the same source

Row | effect of a mutation on the interaction | Variant
15 | disrupting interaction strength | N73D;R85H
